# Experimental data published in the Human Domainome abundance scans (Beltran et al. 2025).
# ± gives the uncertainty stated by the source.
# B1: Proto-oncogene vav, residues 782 to 842; numbered along this chain, P15498 (parent)
# chain: KYFGTAKARYDFCARDRSELSLKEGDIIKILNKKGQQGWWRGEIYGRVGWFPANYVEEDYS
# Variants of: B1
# Assay: abundance fitness (aPCA) (normalised: wild type 0, dead -1); higher = more abundant; growth selection in yeast, the domain comes from the species named
# Details: Homo sapiens
row,Variant,abundance fitness
1,KYFGTAKARYDFCARDRSELSLKEGDIIKILNKKGQQGWWRGEIYGRVGDFPANYVEEDYS [W50D],-0.493 ± 0.15
2,KYFGTAKARYDFCARDRSELSLKEGDIIKILNKKGQQGWWRGEIYGRVGKFPANYVEEDYS [W50K],-0.559 ± 0.15
3,KYFGTAKARYDFCARDRSELSLKEGDIIKILNKKGQQGWWRGEIYGRVGNFPANYVEEDYS [W50N],-0.329 ± 0.14
4,KYFGTAKARYDFCARDRSELSLKEGDIIKILNKKGQQGWWRGEIYGRVGLFPANYVEEDYS [W50L],-0.341 ± 0.069
5,KYFGTAKARYDFCARDRSELSLKEGDIIKILNKKGQQGWWRGEIYGRVGRFPANYVEEDYS [W50R],-0.596 ± 0.092
6,KYFGTAKARYDFCARDRSELSLKEGDIIKILNKKGQQGWWRGEIYGRVGMFPANYVEEDYS [W50M],-0.387 ± 0.12
7,KYFGTAKARYDFCARDRSELSLKEGDIIKILNKKGQQGWWRGEIYGRVGEFPANYVEEDYS [W50E],-0.603 ± 0.17
8,KYFGTAKARYDFCARDRSELSLKEGDIIKILNKKGQQGWWRGEIYGRVGQFPANYVEEDYS [W50Q],-0.516 ± 0.15
9,KYFGTAKARYDFCARDRSELSLKEGDIIKILNKKGQQGWWRGEIYGRVGGFPANYVEEDYS [W50G],-0.699 ± 0.11
10,KYFGTAKARYDFCARDRSELSLKEGDIIKILNKKGQQGWWRGEIYGRVGIFPANYVEEDYS [W50I],-0.739 ± 0.23
11,KYFGTAKARYDFCARDRSELSLKEGDIIKILNKKGQQGWWRGEIYGRVGAFPANYVEEDYS [W50A],-0.649 ± 0.17
12,KYFGTAKARYDFCARDRSELSLKEGDIIKILNKKGQQGWWRGEIYGRVGFFPANYVEEDYS [W50F],-0.678 ± 0.24
13,KYFGTAKARYDFCARDRSELSLKEGDIIKILNKKGQQGWWRGEIYGWVGWFPANYVEEDYS [R47W],-0.841 ± 0.11
14,KYFGTAKARYDFCARDRSELSLKEGDIIKILNKKGQQGWWRGEIYGAVGWFPANYVEEDYS [R47A],-0.268 ± 0.051
15,KYFGTAKARYDFCARDRSELSLKEGDIIKILNKKGQQGWWRGEIYGPVGWFPANYVEEDYS [R47P],-0.86 ± 0.12
16,KYFGTAKARYDFCARDRSELSLKEGDIIKILNKKGQQGWWRGEIYGNVGWFPANYVEEDYS [R47N],-0.276 ± 0.14
17,KYFGTAKARYDFCARDRSELSLKEGDIIKILNKKGQQGWWRGEIYGMVGWFPANYVEEDYS [R47M],-0.393 ± 0.16
18,KYFGTAKARYDFCARDRSELSLKEGDIIKILNKKGQQGWWRGEIYGFVGWFPANYVEEDYS [R47F],-0.788 ± 0.16
19,KYFGTAKARYDFCARDRSELSLKEGDIIKILNKKGQQGWWRGEIYGGVGWFPANYVEEDYS [R47G],-0.628 ± 0.081
20,KYFGTAKARYDFCARDRSELSLKEGDIIKILNKKGQQGWWRGEIYGHVGWFPANYVEEDYS [R47H],-0.226 ± 0.087
21,KYFGTAKARYDFCARDRSELSLKEGDIIKILNKKGQQGWWRGEIYGDVGWFPANYVEEDYS [R47D],-0.3 ± 0.09
22,KYFGTAKARYDFCARDRSELSLKEGDIIKILNKKGQQGWWRGEIYGTVGWFPANYVEEDYS [R47T],-0.313 ± 0.12

row,Variant,abundance fitness
1,KYFGTAKARYDFCARDRSELSLKEGDIIKILNKKGQQGWWRGEIYGVVGWFPANYVEEDYS [R47V],-0.367 ± 0.049
2,KYFGTAKARYDFCARDRSELSLKEGDIIKILNKKGQQGWWRGEIYGSVGWFPANYVEEDYS [R47S],-0.297 ± 0.053
3,KYFGTAKARYDFCARDRSELSLKEGDIIKILNKKGQQGWWRGEIYGKVGWFPANYVEEDYS [R47K],-0.051 ± 0.16
4,KYFGTAKARYDFCARDRSELSLKEGDIIKILNKKGQQGWWRGEIYGQVGWFPANYVEEDYS [R47Q],-0.065 ± 0.069
5,KYFGTAKARYDFCARDRSELSLKEGDIIKILNKKGQQGWWRGEIYGYVGWFPANYVEEDYS [R47Y],-0.503 ± 0.089
6,KYFGTAKARYDFCARDRSELSLKEGDIIKILNKKGQQGWWRGEIYGLVGWFPANYVEEDYS [R47L],-0.493 ± 0.043
7,KYFGTAKARYDFCARDRSELSLKEGDIIKILNKKGQQGWWRGEIWGRVGWFPANYVEEDYS [Y45W],-0.101 ± 0.068
8,KYFGTAKARYDFCARDRSELSLKEGDIIKILNKKGQQGWWRGEIQGRVGWFPANYVEEDYS [Y45Q],0.169 ± 0.066
9,KYFGTAKARYDFCARDRSELSLKEGDIIKILNKKGQQGWWRGEIPGRVGWFPANYVEEDYS [Y45P],-0.211 ± 0.072
10,KYFGTAKARYDFCARDRSELSLKEGDIIKILNKKGQQGWWRGEIGGRVGWFPANYVEEDYS [Y45G],0.125 ± 0.044
11,KYFGTAKARYDFCARDRSELSLKEGDIIKILNKKGQQGWWRGEISGRVGWFPANYVEEDYS [Y45S],0.164 ± 0.047
12,KYFGTAKARYDFCARDRSELSLKEGDIIKILNKKGQQGWWRGEIFGRVGWFPANYVEEDYS [Y45F],0.085 ± 0.17
13,KYFGTAKARYDFCARDRSELSLKEGDIIKILNKKGQQGWWRGEIKGRVGWFPANYVEEDYS [Y45K],0.115 ± 0.065
14,KYFGTAKARYDFCARDRSELSLKEGDIIKILNKKGQQGWWRGEIVGRVGWFPANYVEEDYS [Y45V],-0.074 ± 0.052
15,KYFGTAKARYDFCARDRSELSLKEGDIIKILNKKGQQGWWRGEIMGRVGWFPANYVEEDYS [Y45M],0.1 ± 0.06
16,KYFGTAKARYDFCARDRSELSLKEGDIIKILNKKGQQGWWRGEITGRVGWFPANYVEEDYS [Y45T],-0.021 ± 0.053
17,KYFGTAKARYDFCARDRSELSLKEGDIIKILNKKGQQGWWRGEILGRVGWFPANYVEEDYS [Y45L],0.036 ± 0.043
18,KYFGTAKARYDFCARDRSELSLKEGDIIKILNKKGQQGWWRGEIHGRVGWFPANYVEEDYS [Y45H],0.135 ± 0.15
19,KYFGTAKARYDFCARDRSELSLKEGDIIKILNKKGQQGWWRGEINGRVGWFPANYVEEDYS [Y45N],0.081 ± 0.074
20,KYFGTAKARYDFCARDRSELSLKEGDIIKILNKKGQQGWWRGEIYGRVVWFPANYVEEDYS [G49V],-0.902 ± 0.32
21,KYFGTAKARYDFCARDRSELSLKEGDIIKILNKKGQQGWWRGEIYGRVSWFPANYVEEDYS [G49S],-0.618 ± 0.14
